In article PMC5736629, “Allosteric modulation of protein-protein interactions by individual lipid binding events” (Nature Communications, 2017):

T1: ammonium channel (AmtB) from Escherichia coli (Escherichia coli, UniProt P69681 23-428)
T1 construct: Ammonium channel AmtB, Escherichia coli, wild-type; Expressed as pelB signal peptide - 10x His - MBP - TEV site - AmtB from pET15b; tagless after TEV cleavage; also called ammonia channel; AmtB wild-type; source: E. coli C41(DE3), purified (membranes extracted with octyl glucoside, HisTrap, TEV cleavage, reverse HisTrap); for native MS co-purified with stGlnK (StrepTrap, Superdex 200 Increase); …
T1 sequence: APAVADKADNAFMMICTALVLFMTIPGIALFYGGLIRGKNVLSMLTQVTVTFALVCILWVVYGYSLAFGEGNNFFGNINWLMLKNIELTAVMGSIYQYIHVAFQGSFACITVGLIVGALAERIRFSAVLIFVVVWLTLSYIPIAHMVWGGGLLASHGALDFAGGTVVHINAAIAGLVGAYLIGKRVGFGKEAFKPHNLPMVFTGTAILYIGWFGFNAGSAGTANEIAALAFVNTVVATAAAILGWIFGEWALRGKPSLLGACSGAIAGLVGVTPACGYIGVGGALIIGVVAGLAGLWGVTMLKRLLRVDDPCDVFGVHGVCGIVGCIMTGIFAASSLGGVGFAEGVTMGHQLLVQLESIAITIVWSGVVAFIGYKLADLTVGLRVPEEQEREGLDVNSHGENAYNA

T2: ammonium channel (AmtB) from Escherichia coli, wild-type, tagless (E. coli, UniProt P69681 23-428)
T2 construct: AmtB, ammonium channel, Escherichia coli, wild-type; expressed behind a pelB secretion signal, 10x His-tag, MBP and a TEV site, all removed; also called ammonia channel; source: E. coli C41(DE3), extracted from membranes with octyl glucoside, purified (HisTrap, TEV cleavage, reverse HisTrap); not shown: 10x His-tag, N-terminal, cleaved
T2 sequence: T1 sequence

B1: Strep-tag II-tagged GlnK (stGlnK), Y51F (natural protein, Escherichia coli)
chain: MKLVTVIIKPFKLEDVREALSSIGIQGLTVTEVKGFGRQKGHAELYRGAEFSVNFLPKVKIDVAIADDQLDEVIDIVSKAAYTGKIGDGKIFVAELQRVIRIRTGEADEAAL
notes: Nitrogen regulatory protein GlnK, Escherichia coli; Expressed from pET28b; Y51F prevents uridylylation by GlnD; source: E. coli ArcticExpress (DE3) RIL, purified (StrepTrap HP, Superdex 75)
B2: Strep-tag II-tagged GlnK (stGlnK), Y51F (natural protein, E. coli)
chain: B1 chain
notes: GlnK, nitrogen regulatory protein (PII-2), Escherichia coli, with the point mutation Y51F that prevents uridylylation by GlnD; source: E. coli ArcticExpress (DE3) RIL, purified (StrepTrap, Superdex 75)

Columns and labels:
Details in all cases: both partners purified
[1] = molecular target: T1, ammonium channel (AmtB) from …; assay: native MS; AmtB-GlnK at 2 uM titrated with DLPG (12:0); 200 mM ammonium acetate pH 7.4, 0.5% C8E4, 50 uM ADP; global fit of the equilibrium-coupled AmtB-GlnK-lipid binding model; apparent constants
[2] = molecular target: T1, ammonium channel (AmtB) from …; assay: native MS; AmtB-GlnK at 2 uM titrated with POPS; 200 mM ammonium acetate pH 7.4, 0.5% C8E4, 50 uM ADP, 298 K; global fit of the equilibrium-coupled AmtB-GlnK-lipid binding model; apparent constants
[3] = molecular target: T1, ammonium channel (AmtB) from …; assay: native MS; AmtB-GlnK at 2 uM titrated with SOPE (18:0-18:1, cis); 200 mM ammonium acetate pH 7.4, 0.5% C8E4, 50 uM ADP; global fit of the equilibrium-coupled AmtB-GlnK-lipid binding model; apparent constants
[4] = molecular target: T1, ammonium channel (AmtB) from …; assay: native MS; AmtB-GlnK at 2 uM titrated with POPA; 200 mM ammonium acetate pH 7.4, 0.5% C8E4, 50 uM ADP, 298 K; global fit of the equilibrium-coupled AmtB-GlnK-lipid binding model; apparent constants
[5] = molecular target: T1, ammonium channel (AmtB) from …; assay: native MS; AmtB-GlnK at 2 uM titrated with DPPG (16:0); 200 mM ammonium acetate pH 7.4, 0.5% C8E4, 50 uM ADP; global fit of the equilibrium-coupled AmtB-GlnK-lipid binding model; apparent constants
[6] = molecular target: T1, ammonium channel (AmtB) from …; assay: native MS; AmtB-GlnK at 2 uM titrated with TOCDL (cardiolipin); 200 mM ammonium acetate pH 7.4, 0.5% C8E4, 50 uM ADP, 298 K; global fit of the equilibrium-coupled AmtB-GlnK-lipid binding model; apparent constants
[7] = molecular target: T1, ammonium channel (AmtB) from …; assay: native MS; AmtB-GlnK at 2 uM titrated with POPG; 200 mM ammonium acetate pH 7.4, 0.5% C8E4, 50 uM ADP, 298 K; global fit of the equilibrium-coupled AmtB-GlnK-lipid binding model; apparent constants
[8] = molecular target: T1, ammonium channel (AmtB) from …; assay: native MS; AmtB-GlnK at 2 uM titrated with POPC; 200 mM ammonium acetate pH 7.4, 0.5% C8E4, 50 uM ADP, 298 K; global fit of the equilibrium-coupled AmtB-GlnK-lipid binding model; apparent constants
[9] = molecular target: T1, ammonium channel (AmtB) from …; assay: native MS; AmtB-GlnK at 2 uM titrated with DOPE (cis, 18:1); 200 mM ammonium acetate pH 7.4, 0.5% C8E4, 50 uM ADP; global fit of the equilibrium-coupled AmtB-GlnK-lipid binding model; apparent constants
[10] = molecular target: T1, ammonium channel (AmtB) from …; assay: native MS; AmtB-GlnK at 2 uM titrated with DMPG (14:0); 200 mM ammonium acetate pH 7.4, 0.5% C8E4, 50 uM ADP; global fit of the equilibrium-coupled AmtB-GlnK-lipid binding model; apparent constants
[11] = molecular target: T1, ammonium channel (AmtB) from …; assay: native MS; AmtB-GlnK at 2 uM titrated with POPE; 200 mM ammonium acetate pH 7.4, 0.5% C8E4, 50 uM ADP, 298 K; global fit of the equilibrium-coupled AmtB-GlnK-lipid binding model; apparent constants
[12] = molecular target: T1, ammonium channel (AmtB) from …; assay: native MS; AmtB-GlnK at 2 uM titrated with DOPE (trans, 18:1); 200 mM ammonium acetate pH 7.4, 0.5% C8E4, 50 uM ADP; global fit of the equilibrium-coupled AmtB-GlnK-lipid binding model; apparent constants
[13] = molecular target: T2, ammonium channel (AmtB) from …; assay: native MS; ADP titration series; at and above 100 uM ADP (asymptote); AmtB-GlnK 2 uM, 200 mM ammonium acetate pH 7.4, 0.5% C8E4

Binder | Kd [1] [nM] | Kd [2] [nM] | Kd [3] [nM] | Kd [4] [nM] | Kd [5] [nM] | Kd [6] [nM] | Kd [7] [nM] | Kd [8] [nM] | Kd [9] [nM] | Kd [10] [nM] | Kd [11] [nM] | Kd [12] [nM] | Kd [13] [nM]
B1 | 522 | 500 | 528 | 517 | 521 | 517 | 540 | 486 | 517 | 551 | 504 | 556 | 
B2 |  |  |  |  |  |  |  |  |  |  |  |  | ~80
